From publication PMC12491437 (Nature Communications, 2025) come the findings set out here.

Data set [1] addresses D2 dopamine receptor (D2R) wild type, FLAG-D2R-Rluc8 / FLAG-D2R-Venus (UniProt P14416). Nature of the data set: FRET or BRET; β-arrestin recruitment BRET in HEK293 cells: D2R-Rluc8 donor, βarr1-YFP or βarr2-YFP acceptor, 5 μM coelenterazine-h; basal (PBS) and after quinpirole (10 μM time course over 5 min, fitted to a one-phase association; 1 nM-1 mM concentration response). In general terms: In BRET a luciferase serves as donor, and the signal depends on an acceptor being close.

For data set [2], the target named is D2R V96C, FLAG-D2R-Rluc8 / FLAG-D2R-Venus (UniProt P14416). The data set is described as above.
The target in data set [3] is D2R V96S, FLAG-D2R-Rluc8 / FLAG-D2R-Venus (UniProt P14416). Described as above.
A further data set concerns the target D2R V97C, FLAG-D2R-Rluc8 (UniProt P14416). Described as above.
Data set [4] has as its target D2R Y93C, FLAG-D2R-Rluc8 / FLAG-D2R-Venus (UniProt P14416). The description is as above.
Data set [5] deals with the molecule itself. Nature of the data set: PD-PALM (single-molecule localisation microscopy, TIRF, neighbourhood analysis); cell surface FLAG-D2R on HEK293 cells labelled with anti-FLAG-CAGE500 (1:1), fixed; Getis-Franklin neighbourhood analysis, search radius 50 nm; basal or after 5 min 10 μM quinpirole.

Where “and” joins values, the source holds several entries; their conditions need not be identical. Identical values can stand only once.

Take “β-arrestin-2-YFP (from UniProt P32121 1-409) (natural protein)”: the half time of quinpirole-induced recruitment in data set [1] was 68.4 s and 30.3 s and 41.1 s; in data set [2] it was 35.5 s; in data set [3] it was 39.4 s; with D2R V97C, FLAG-D2R-Rluc8, 32.7 s; in data set [4], 34.6 s. Besides, the initial rate of quinpirole-induced recruitment (BRET ratio units per second) in data set [2] is 0.001; in data set [3], 0.0007; in the data set with D2R V97C, FLAG-D2R-Rluc8 it was 0.000181; in data set [4] it was 0.000113. In addition, the k (rate constant of quinpirole-induced recruitment, one-phase association fit) in data set [2] turned out to be 0.02 s⁻¹; in data set [3], 0.027 s⁻¹; in the data set with D2R V97C, FLAG-D2R-Rluc8, 0.00443 s⁻¹; in data set [4], 0.00333 s⁻¹.

B1: D2R V96S/V97C, FLAG-D2R-Rluc8 / FLAG-D2R-Venus (receptor, UniProt P14416 1-443, looked up)
chain: MDPLNLSWYDDDLERQNWSRPFNGSDGKADRPHYNYYATLLTLLIAVIVFGNVLVCMAVSREKALQTTTNYLIVSLAVADLLVATLVMPWVVYLESCGEWKFSRIHCDIFVTLDVMMCTASILNLCAISIDRYTAVAMPMLYNTRYSSKRRVTVMISIVWVLSFTISCPLLFGLNNADQNECIIANPAFVVYSSIVSFYVPFIVTLLVYIKIYIVLRRRRKRVNTKRSSRAFRAHLRAPLKGNCTHPEDMKLCTVIMKSNGSFPVNRRRVEAARRAQELEMEMLSSTSPPERTRYSPIPPSHHQLTLPDPSHHGLHSTPDSPAKPEKNGHAKDHPKIAKIFEIQTMPNGKTRTSLKTMSRRKLSQQKEKKATQMLAIVLGVFIICWLPFFITHILNIHCDCNIPPVLYSAFTWLGYVNSAVNPIIYTTFNIEFRKAFLKILHC
notes: D2 dopamine receptor; mutant made from the FLAG-D2R-Rluc8 plasmid by site-directed mutagenesis; The mutant was also moved into the FLAG-D2R-Venus plasmid for saturation BRET; also called Mut2; D2R-Rluc8 V96S/V97C; source: HEK293, transfected; in intact cells (BRET, PD-PALM) and in lysate (Western blot); not shown: FLAG, N-terminal, kept; Rluc8 (donor copy)
For B1, the “increase of receptors in oligomers relative to D2R WT” value in data set [5] is approximately 6%.
